Blank lines part the entries; values can stand above or below the substance they belong to.
Columns and labels:
[1] = target: branch junction (bovine Arp2/3 complex with mother and daughter actin filaments) (bovine | rabbit) (UniProt P61157)
[2] = target: actin filaments (33% Oregon-Green actin), filament sides (rabbit) (UniProt P68135); experiment: single-molecule TIRF microscopy; during active branching: 1 µM 33% Oregon-Green actin, 5 nM Arp2/3 complex, 50 nM VCA and 2 nM Alexa568-cortactin; average lifetimes for each binding class
[3] = target: branch junction (bovine Arp2/3 complex with mother and daughter actin filaments) (bovine | rabbit) (UniProt P61157); experiment: as above
[4] = target: actin filaments (33% Oregon-Green actin), filament sides (rabbit) (UniProt P68135); experiment: single-molecule TIRF microscopy; 2 nM Alexa568-cortactin (1–336) on polymerizing filaments of 1 µM 33% Oregon-Green actin, no Arp2/3 complex; filaments tethered by biotinylated myosin; lifetimes fit with a single exponential
[5] = target: actin filaments (33% Oregon-Green actin), filament sides (rabbit) (UniProt P68135); experiment: single-molecule TIRF microscopy; preformed branched networks (1 µM 33% Oregon-Green actin, 5 nM Arp2/3 complex, 30 nM VCA, ~6 min), then 1.5 nM Alexa568-cortactin and 0.1 µM actin monomers; koff from lifetimes, KD from the average fraction bound, kon calculated from KD and koff
[6] = target: branch junction (bovine Arp2/3 complex with mother and daughter actin filaments) (bovine | rabbit) (UniProt P61157); experiment: as above
[7] = target: G-actin (rabbit muscle actin monomers) (rabbit) (UniProt P68135); experiment: fluorescence polarisation; competition: anisotropy of 50 nM Rhodamine-VCA with 150 nM G-actin and increasing VCA or VCA mutants; 10 mM Hepes pH 7.0, 50 mM KCl, 1 mM MgCl2, 1 mM EGTA, 1 mM DTT, 0.2 mM ATP, 350 nM Latrunculin B; KD is the mean of at least three fits
[8] = target: branch junction (bovine Arp2/3 complex with mother and daughter actin filaments) (bovine | rabbit) (UniProt P61157); experiment: single-molecule TIRF microscopy; during active branching: 1 µM 33% Oregon-Green actin, 10 nM Arp2/3 complex, 350 nM VCA and 10 nM Alexa568-NtA(1-48)

cortactin NtA (residues 1–84), sequence (Q60598 1-84): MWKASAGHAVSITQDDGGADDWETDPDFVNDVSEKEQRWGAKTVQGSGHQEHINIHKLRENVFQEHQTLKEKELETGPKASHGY

concentration of NtA (1–84) required for half-maximal synergy with GST-VCA (maximum rate of pyrene-actin polymerization; 2 µM 15% pyrene-actin, 20 nM Arp2/3 complex, 250 nM GST-VCA) [1]: 11 µM
Substance: cortactin NtA (residues 1–84) (from UniProt Q60598 1-84) (domain or fragment)

lifetime on filament sides during active branching [2]: 8 s
average lifetime at the junction after nucleation [3]: 62 s
average lifetime before nucleation (nascent branch junction) [3]: 6.5 s
average lifetime on existing branch junctions during active branching [3]: 29.5 s
koff [4]: 0.05 s⁻¹
Kd [5]: 5.21 µM
koff [5]: 0.063 s⁻¹
kon [5]: 12100 M⁻¹ s⁻¹
Kd [6]: 0.017 µM
average lifetime on branch junctions (preformed filament reactions) [6]: 29.1 s
koff [6]: 0.034 s⁻¹
kon [6]: 2e+06 M⁻¹ s⁻¹
Substance: Alexa568-cortactin (residues 1–336) (from UniProt Q60598 1-336) (domain or fragment)

Kd [7]: 11.2 µM
Substance: N-WASP-VCA(R442A) (from UniProt Q95107 1-505) (domain or fragment)

time bound after daughter filament nucleation (one event shown) [8]: 4.5 s
Substance: Alexa568-NtA(1-48) (from UniProt Q60598 1-48) (domain or fragment)

Kd [7]: 0.63 µM
Substance: N-WASP-VCA(E455R) (from UniProt Q95107 1-505) (domain or fragment)

— PMC3762189
